Patent US20190360025A1
Blank lines part the entries; values can stand above or below the substance they belong to.

Legend:
[1] = target: tumor necrosis factor alpha (TNF-α), R&D Systems 210-TA-005 (UniProt P01375); assay: c-PLA 1X probes, human plasma; TNF-α 1.00E-12 M
[2] = target: tumor necrosis factor alpha (TNF-α), R&D Systems 210-TA-005 (UniProt P01375); assay: t-PLA 1X probes, buffer; TNF-α 1.00E-11 M
[3] = target: tumor necrosis factor alpha (TNF-α), R&D Systems 210-TA-005 (UniProt P01375); assay: c-PLA, buffer; TNF-α 5.00E-07 M
[4] = target: tumor necrosis factor alpha (TNF-α), R&D Systems 210-TA-005 (UniProt P01375); assay: c-PLA 10X probes, buffer; TNF-α 1.00E-10 M
[5] = target: tumor necrosis factor alpha (TNF-α), R&D Systems 210-TA-005 (UniProt P01375); assay: c-PLA 10X probes, human plasma; TNF-α 1.00E-12 M
[6] = target: tumor necrosis factor alpha (TNF-α), R&D Systems 210-TA-005 (UniProt P01375); assay: t-PLA 10X probes, buffer; TNF-α 1.00E-08 M
[7] = target: tumor necrosis factor alpha (TNF-α), R&D Systems 210-TA-005 (UniProt P01375); assay: c-PLA 10X probes, human plasma; TNF-α 1.00E-13 M
[8] = target: tumor necrosis factor alpha (TNF-α), R&D Systems 210-TA-005 (UniProt P01375); assay: t-PLA 10X probes, human plasma; TNF-α 1.00E-09 M
[9] = target: tumor necrosis factor alpha (TNF-α), R&D Systems 210-TA-005 (UniProt P01375); assay: c-PLA, buffer; TNF-α 1.00E-10 M
[10] = target: tumor necrosis factor alpha (TNF-α), R&D Systems 210-TA-005 (UniProt P01375); assay: c-PLA 10X probes, buffer; TNF-α 1.00E-11 M
[11] = target: tumor necrosis factor alpha (TNF-α), R&D Systems 210-TA-005 (UniProt P01375); assay: c-PLA 1X probes, buffer; TNF-α 1.00E-09 M
[12] = target: tumor necrosis factor alpha (TNF-α), R&D Systems 210-TA-005 (UniProt P01375); assay: BLI (Octet RED), antibody on protein G sensors, 1:1 global fit
[13] = target: tumor necrosis factor alpha (TNF-α), R&D Systems 210-TA-005 (UniProt P01375); assay: t-PLA 1X probes, buffer; TNF-α 5.00E-07 M
[14] = target: tumor necrosis factor alpha (TNF-α), R&D Systems 210-TA-005 (UniProt P01375); assay: c-PLA, buffer; TNF-α 1.00E-11 M
[15] = target: tumor necrosis factor alpha (TNF-α), R&D Systems 210-TA-005 (UniProt P01375); assay: c-PLA 1X probes, buffer; TNF-α 1.00E-08 M
[16] = target: vascular endothelial growth factor (VEGF), R&D Systems 293-VE-010 (human) (UniProt P15692); assay: c-PLA with preamplification; VEGF 1.00E-08 M
[17] = target: vascular endothelial growth factor (VEGF), R&D Systems 293-VE-010 (human) (UniProt P15692); assay: c-PLA, buffer; VEGF 1.00E-12 M
[18] = target: vascular endothelial growth factor (VEGF), R&D Systems 293-VE-010 (human) (UniProt P15692); assay: t-PLA, human plasma; VEGF 1.00E-14 M
[19] = target: vascular endothelial growth factor (VEGF), R&D Systems 293-VE-010 (human) (UniProt P15692); assay: c-PLA with preamplification; VEGF 1.00E-14 M
[20] = target: vascular endothelial growth factor (VEGF), R&D Systems 293-VE-010 (human) (UniProt P15692); assay: t-PLA, human plasma; VEGF 1.00E-13 M
[21] = target: vascular endothelial growth factor (VEGF), R&D Systems 293-VE-010 (human) (UniProt P15692); assay: c-PLA, human plasma; VEGF 1.00E-10 M
[22] = target: vascular endothelial growth factor (VEGF), R&D Systems 293-VE-010 (human) (UniProt P15692); assay: c-PLA with preamplification; VEGF 1.00E-11 M
[23] = target: vascular endothelial growth factor (VEGF), R&D Systems 293-VE-010 (human) (UniProt P15692); assay: BLI (Octet RED), antibody on protein G sensors, 1:1 global fit
[24] = target: vascular endothelial growth factor (VEGF), R&D Systems 293-VE-010 (human) (UniProt P15692); assay: t-PLA, buffer; VEGF 1.00E-13 M
[25] = target: vascular endothelial growth factor (VEGF), R&D Systems 293-VE-010 (human) (UniProt P15692); assay: t-PLA, buffer; VEGF 1.00E-12 M
[26] = target: vascular endothelial growth factor (VEGF), R&D Systems 293-VE-010 (human) (UniProt P15692); assay: t-PLA, buffer; VEGF 1.00E-09 M
[27] = target: vascular endothelial growth factor (VEGF), R&D Systems 293-VE-010 (human) (UniProt P15692); assay: c-PLA, human plasma; VEGF 1.00E-11 M
[28] = target: vascular endothelial growth factor (VEGF), R&D Systems 293-VE-010 (human) (UniProt P15692); assay: t-PLA, chicken plasma; VEGF 1.00E-08 M
[29] = target: vascular endothelial growth factor (VEGF), R&D Systems 293-VE-010 (human) (UniProt P15692); assay: c-PLA, buffer; VEGF 1.00E-13 M

Chain of UniProt P01375 (P01375 77-233 limits assumed): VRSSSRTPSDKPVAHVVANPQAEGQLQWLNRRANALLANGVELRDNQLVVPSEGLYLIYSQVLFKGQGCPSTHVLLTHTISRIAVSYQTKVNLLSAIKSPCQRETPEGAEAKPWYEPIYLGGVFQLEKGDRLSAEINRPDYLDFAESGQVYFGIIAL
Chain of UniProt P15692 (P15692 other isoform, or with tags, fused parts or gaps limits assumed): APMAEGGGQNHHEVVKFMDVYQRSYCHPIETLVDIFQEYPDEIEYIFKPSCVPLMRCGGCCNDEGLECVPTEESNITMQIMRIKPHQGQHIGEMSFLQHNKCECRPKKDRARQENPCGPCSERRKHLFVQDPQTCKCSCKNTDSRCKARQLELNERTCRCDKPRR

Substance: affinity-purified polyclonal anti-TNF-α antibody (R&D Systems AF-210-NA)
Counts [1]: 75.9 | Counts [2]: 443000 | Counts [3]: 33000 | SBR [3]: 2930 | Counts [4]: 4620 | Counts [5]: 2260 | Counts [6]: 1.33e+09 | SBR [6]: 233 | Counts [7]: 2030 | Counts [8]: 8.87e+07 | SBR [8]: 7.8 | Counts [9]: 260 | Counts [10]: 590 | Counts [11]: 3700 | SBR [11]: 232 | Kd [12]: 6.43 nM | Counts [13]: 1.33e+08 | Counts [14]: 22.1 | Counts [15]: 11600 | SBR [15]: 730

Counts [16]: 8.14e+07 | SBR [16]: 1370 | Counts [17]: 619 | SBR [17]: 21 | Counts [18]: 1.63e+06 | Counts [19]: 90200 | SBR [19]: 1.5 | Counts [20]: 1.79e+06 | SBR [20]: 1.1 | Counts [21]: 13800 | SBR [21]: 53 | Counts [22]: 4.88e+06 | SBR [22]: 82 | Kd [23]: 0.057 nM | Counts [24]: 1.61e+06 | Counts [25]: 3.69e+06 | SBR [25]: 11 | Counts [26]: 3.98e+09 | SBR [26]: 11500 | Counts [27]: 1770 | SBR [27]: 6.8 | Counts [28]: 1.49e+08 | SBR [28]: 2230 | Counts [29]: 272 | SBR [29]: 9.1
Substance: affinity-purified polyclonal anti-VEGF antibody (R&D Systems AF-293-NA)
